The results in this text go back to the supplement of paper PMC5998384.

Series [1] relates to HeLa Kyoto. Nature of the series: thermal stability score vs G1/S (z-score of summed log2 fold changes over temperatures); higher = more thermally stable than in G1/S.
The subject of series [2] is HeLa Kyoto. The experiment in a line: solubility change mitosis vs G1/S (difference of NP-40 vs SDS log2 ratios) (log2 ratio difference); higher = more soluble in mitosis.
In series [3] the test system is HeLa Kyoto. The experiment in a line: solubility in G1/S (NP-40 vs SDS abundance) (log2 ratio); higher = more soluble. As to conditions: cell cycle stage: G1/S.
Series [4] concerns HeLa Kyoto. The experiment in a line: melting temperature (median over replicates), in situ; higher = more thermally stable.
[5] abbreviates: cell cycle stage: early G1 (4.5 h after nocodazole release).
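Wherever melting temperature (median over replicates), in situ is given: HeLa Kyoto cells synchronized by double thymidine or nocodazole block, proteins quantified by TMT10plex mass spectrometry, three independent biological replicates.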
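Wherever solubility change mitosis vs G1/S (difference of NP-40 vs SDS log2 ratios) is given: synchronized HeLa Kyoto cells (double thymidine block for G1/S, nocodazole release for mitosis), protein amounts in NP-40 versus SDS lysates quantified by mass spectrometry, three biological replicates.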
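Wherever solubility in G1/S (NP-40 vs SDS abundance) is given: HeLa Kyoto cells arrested at G1/S by double thymidine block, proteins quantified by TMT10plex mass spectrometry in mild NP-40 versus SDS extracts, three biological replicates.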
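Wherever thermal stability score vs G1/S (z-score of summed log2 fold changes over temperatures) is given: synchronized HeLa Kyoto cells, proteins quantified by TMT10plex mass spectrometry, three biological replicates, mitosis taken 0.5 h after nocodazole release, G1/S directly after double thymidine block.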

Sequence of PGRMC1 (chain, as listed by the source): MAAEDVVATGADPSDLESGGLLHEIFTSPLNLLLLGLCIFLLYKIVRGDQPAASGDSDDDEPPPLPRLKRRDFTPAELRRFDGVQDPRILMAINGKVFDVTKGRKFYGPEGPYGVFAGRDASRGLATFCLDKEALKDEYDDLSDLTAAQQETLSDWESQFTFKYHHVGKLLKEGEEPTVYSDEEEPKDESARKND
Sequence of PCYT1A (chain, as listed by the source): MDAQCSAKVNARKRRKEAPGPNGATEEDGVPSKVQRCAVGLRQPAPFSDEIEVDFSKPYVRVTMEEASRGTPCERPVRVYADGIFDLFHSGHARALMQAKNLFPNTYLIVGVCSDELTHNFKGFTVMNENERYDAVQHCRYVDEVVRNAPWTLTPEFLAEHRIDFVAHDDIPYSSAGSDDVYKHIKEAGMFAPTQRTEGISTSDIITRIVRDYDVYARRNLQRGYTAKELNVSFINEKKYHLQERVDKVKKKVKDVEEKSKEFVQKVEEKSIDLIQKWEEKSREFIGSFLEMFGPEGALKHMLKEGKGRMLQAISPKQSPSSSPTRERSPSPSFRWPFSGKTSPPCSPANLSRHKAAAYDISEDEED
Sequence of NLE1 (chain, as listed by the source): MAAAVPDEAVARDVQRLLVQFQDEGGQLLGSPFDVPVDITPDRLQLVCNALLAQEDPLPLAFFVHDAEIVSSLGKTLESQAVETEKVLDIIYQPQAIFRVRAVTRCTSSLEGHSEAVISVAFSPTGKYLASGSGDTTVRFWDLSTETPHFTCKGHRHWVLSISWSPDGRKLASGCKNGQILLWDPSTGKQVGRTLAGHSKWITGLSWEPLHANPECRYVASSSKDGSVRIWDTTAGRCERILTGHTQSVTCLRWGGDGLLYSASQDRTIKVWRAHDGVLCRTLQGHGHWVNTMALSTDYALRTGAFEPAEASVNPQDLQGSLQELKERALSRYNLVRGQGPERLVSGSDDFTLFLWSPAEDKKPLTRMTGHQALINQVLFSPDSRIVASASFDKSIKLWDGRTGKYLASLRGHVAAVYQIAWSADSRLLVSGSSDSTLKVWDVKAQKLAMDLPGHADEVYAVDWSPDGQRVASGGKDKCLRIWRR
Sequence of NCOA3 (chain, as listed by the source): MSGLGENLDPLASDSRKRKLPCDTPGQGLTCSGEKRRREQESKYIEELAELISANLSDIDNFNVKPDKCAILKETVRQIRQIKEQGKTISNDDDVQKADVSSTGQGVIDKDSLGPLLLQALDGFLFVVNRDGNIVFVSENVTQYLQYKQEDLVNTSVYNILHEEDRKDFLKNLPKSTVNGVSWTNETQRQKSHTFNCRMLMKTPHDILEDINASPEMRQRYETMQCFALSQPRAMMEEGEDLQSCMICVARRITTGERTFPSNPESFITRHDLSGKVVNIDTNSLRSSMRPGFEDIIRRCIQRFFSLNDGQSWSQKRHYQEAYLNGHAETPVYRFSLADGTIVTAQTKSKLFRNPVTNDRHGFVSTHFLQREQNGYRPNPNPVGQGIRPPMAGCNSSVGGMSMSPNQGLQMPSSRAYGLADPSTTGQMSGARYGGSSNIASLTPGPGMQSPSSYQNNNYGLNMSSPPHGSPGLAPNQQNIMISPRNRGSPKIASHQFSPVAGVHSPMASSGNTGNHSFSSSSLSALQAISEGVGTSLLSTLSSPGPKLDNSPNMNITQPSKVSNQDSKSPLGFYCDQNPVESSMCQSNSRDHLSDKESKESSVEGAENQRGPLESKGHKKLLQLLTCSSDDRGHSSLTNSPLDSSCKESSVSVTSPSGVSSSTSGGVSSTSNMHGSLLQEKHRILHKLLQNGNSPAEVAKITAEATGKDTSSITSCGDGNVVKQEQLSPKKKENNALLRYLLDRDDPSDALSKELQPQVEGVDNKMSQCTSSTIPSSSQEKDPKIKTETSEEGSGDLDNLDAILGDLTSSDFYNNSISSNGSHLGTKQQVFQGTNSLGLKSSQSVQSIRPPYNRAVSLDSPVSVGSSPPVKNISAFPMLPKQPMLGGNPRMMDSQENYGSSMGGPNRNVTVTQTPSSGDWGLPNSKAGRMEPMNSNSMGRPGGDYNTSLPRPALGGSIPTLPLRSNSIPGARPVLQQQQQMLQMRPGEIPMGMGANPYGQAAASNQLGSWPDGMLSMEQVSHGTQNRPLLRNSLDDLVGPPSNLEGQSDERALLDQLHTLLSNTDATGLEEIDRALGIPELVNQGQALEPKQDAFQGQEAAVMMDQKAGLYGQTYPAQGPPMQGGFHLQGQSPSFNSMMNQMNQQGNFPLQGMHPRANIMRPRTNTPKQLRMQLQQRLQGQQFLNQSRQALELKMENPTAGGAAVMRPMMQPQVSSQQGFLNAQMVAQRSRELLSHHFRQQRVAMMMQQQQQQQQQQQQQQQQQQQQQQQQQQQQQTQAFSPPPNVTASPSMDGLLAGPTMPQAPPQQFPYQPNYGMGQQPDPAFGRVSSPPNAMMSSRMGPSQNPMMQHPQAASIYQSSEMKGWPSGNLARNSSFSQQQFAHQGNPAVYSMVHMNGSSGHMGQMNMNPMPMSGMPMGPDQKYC

As for “MYRALRLLARSRPLVRAPAAALASAPGLGGAAVPSFWPPNAARMASQNSFRIEYDTFGELKVPNDKYYGAQTVRSTMNFKIGGVTERMPTPVIKAFGILKRAAAEVNQDYGLDPKIANAIMKAADEVAEGKLNDHFPLVVWQTGSGTQTNMNVNEVISNRAIEMLGGELGSKIPVHPNDHVNKSQSSNDTFPTAMHIAAAIEVHEVLLPGLQKLHDALDAKSKEFAQIIKIGRTHTQDAVPLTLGQEFSGYVQQVKYAMTRIKAAMPRIYELAAGGTAVGTGLNTRIGFAEKVAAKVAALTGLPFVTAPNKFEALAAHDALVELSGAMNTTACSLMKIANDIRFLGSGPRSGLGELILPENEPGSSIMPGKVNPTQCEAMTMVAAQVMGNHVAVTVGGSNGHFELNVFKPMMIKNVLHSARLLGDASVSFTENCVVGIQANTERINKLMNESLMLVTALNPHIGYDKAAKIAKTAHKNGSTLKETAIELGYLTAEQFDEWVKPKDMLGPK [FH]”, the thermal stability score in the series on HeLa Kyoto [1] (setting [5]) was 1.14; with HeLa Kyoto [1] (cell cycle stage: mitosis), -0.915. Besides, the “solubility change mitosis (log2)” value in the series on HeLa Kyoto [2] turned out to be 0.0382. In addition, in the series with HeLa Kyoto [3], the “solubility in G1/S (log2)” value turned out to be 0.478. Also, the melting temperature in the series on HeLa Kyoto [4] (cell cycle stage: G1/S) came to 53.5 °C; with HeLa Kyoto [4] (cell cycle stage: mitosis), 53.4 °C.
Take NCOA3: the thermal stability score with HeLa Kyoto [1] (setting [5]) amounted to 0.836; in the series on HeLa Kyoto [1] (cell cycle stage: mitosis), 1.22. In addition, the “solubility change mitosis (log2)” value in the series on HeLa Kyoto [2] is -0.0688. In addition, the “solubility in G1/S (log2)” value in the series on HeLa Kyoto [3] was determined as 0.355. The melting temperature with HeLa Kyoto [4] (cell cycle stage: G1/S) was found to be 51.2 °C; with HeLa Kyoto [4] (cell cycle stage: mitosis) it was 49.8 °C.
Take NFIA: the thermal stability score in the series on HeLa Kyoto [1] (setting [5]) worked out at 0.325; in the series on HeLa Kyoto [1] (cell cycle stage: mitosis), 1.68. Moreover, the “solubility change mitosis (log2)” value in the series on HeLa Kyoto [2] was found to be 0.0442. The “solubility in G1/S (log2)” value in the series with HeLa Kyoto [3] was -0.00202. Also, the melting temperature worked out at 59 °C with HeLa Kyoto [4] (cell cycle stage: G1/S) and 62.1 °C in the series on HeLa Kyoto [4] (cell cycle stage: mitosis).
On to NIPBL, for which the thermal stability score in the series on HeLa Kyoto [1] (setting [5]) worked out at 2.24; in the series on HeLa Kyoto [1] (cell cycle stage: mitosis), 6.45. The “solubility change mitosis (log2)” value in the series on HeLa Kyoto [2] came to 0.263. Besides, the “solubility in G1/S (log2)” value in the series on HeLa Kyoto [3] is -0.446. Further, the values for the melting temperature with HeLa Kyoto [4] (cell cycle stage: G1/S) and with HeLa Kyoto [4] (cell cycle stage: mitosis) were 47.3 °C and 49.3 °C, respectively.
NLE1: the thermal stability score is -1.88 in the series with HeLa Kyoto [1] (setting [5]) and -4.55 with HeLa Kyoto [1] (cell cycle stage: mitosis). Moreover, the “solubility change mitosis (log2)” value with HeLa Kyoto [2] was 0.0775. Besides, the “solubility in G1/S (log2)” value in the series on HeLa Kyoto [3] is -0.35. In addition, the melting temperature in the series with HeLa Kyoto [4] (cell cycle stage: G1/S) came to 53 °C; with HeLa Kyoto [4] (cell cycle stage: mitosis), 54.2 °C.
Consider NUP210, for which the thermal stability score in the series on HeLa Kyoto [1] (setting [5]) amounted to 6.11; in the series on HeLa Kyoto [1] (cell cycle stage: mitosis) it was 9.9. Moreover, in the series on HeLa Kyoto [2], the “solubility change mitosis (log2)” value stood at 0.0421. In addition, the “solubility in G1/S (log2)” value with HeLa Kyoto [3] was -0.0147. Further, the melting temperature with HeLa Kyoto [4] (cell cycle stage: G1/S) is 54.3 °C; in the series with HeLa Kyoto [4] (cell cycle stage: mitosis) it was 53.7 °C.
PACS1: the thermal stability score was -0.425 in the series with HeLa Kyoto [1] (setting [5]) and 0.437 with HeLa Kyoto [1] (cell cycle stage: mitosis). For the same substance, the “solubility change mitosis (log2)” value in the series on HeLa Kyoto [2] was -0.211. For the same substance, the “solubility in G1/S (log2)” value with HeLa Kyoto [3] was found to be 0.119. The values for the melting temperature in the series with HeLa Kyoto [4] (cell cycle stage: G1/S) and with HeLa Kyoto [4] (cell cycle stage: mitosis) were 50.8 °C and 51.4 °C, respectively.
In the case of PCMT1, the figures for the thermal stability score in the series with HeLa Kyoto [1] (setting [5]) and with HeLa Kyoto [1] (cell cycle stage: mitosis) were 0.536 and -0.469, respectively. In the series with HeLa Kyoto [2], the “solubility change mitosis (log2)” value turned out to be 0.147. Further, the “solubility in G1/S (log2)” value in the series on HeLa Kyoto [3] is 0.427. Moreover, the melting temperature with HeLa Kyoto [4] (cell cycle stage: G1/S) was 54 °C; with HeLa Kyoto [4] (cell cycle stage: mitosis), 54.8 °C.
With PCYT1A, the thermal stability score with HeLa Kyoto [1] (setting [5]) was found to be 2.25; in the series with HeLa Kyoto [1] (cell cycle stage: mitosis), 3.79. Moreover, the “solubility change mitosis (log2)” value in the series on HeLa Kyoto [2] was -0.0895. The “solubility in G1/S (log2)” value in the series with HeLa Kyoto [3] was 0.341. Further, the melting temperature in the series with HeLa Kyoto [4] (cell cycle stage: G1/S) amounted to 51.4 °C; with HeLa Kyoto [4] (cell cycle stage: mitosis) it was 52.4 °C.
With PDE4DIP, the thermal stability score came out at 0.534 in the series on HeLa Kyoto [1] (setting [5]) and 0.401 in the series on HeLa Kyoto [1] (cell cycle stage: mitosis). In addition, in the series with HeLa Kyoto [2], the “solubility change mitosis (log2)” value stood at 0.0943. Moreover, in the series with HeLa Kyoto [3], the “solubility in G1/S (log2)” value came out at 0.0173. Further, in the series on HeLa Kyoto [4] (cell cycle stage: G1/S), the melting temperature was 51.6 °C.
For the substance PGRMC1, the values for the thermal stability score in the series on HeLa Kyoto [1] (setting [5]) and with HeLa Kyoto [1] (cell cycle stage: mitosis) were -0.433 and -0.0697, respectively. Moreover, the “solubility change mitosis (log2)” value in the series with HeLa Kyoto [2] came to 0.219. The “solubility in G1/S (log2)” value with HeLa Kyoto [3] worked out at 0.15. The melting temperature was found to be 53.1 °C with HeLa Kyoto [4] (cell cycle stage: G1/S) and 52.8 °C in the series on HeLa Kyoto [4] (cell cycle stage: mitosis).
